Results on one molecule are retold here after patent publication US20240301049A1 (Ablynx, published 2024).

Experiment [1] has as its target T1, human IL-6 (human, UniProt P05231 30-212). Put plainly: cell-based or functional assay.
For another experiment, the target named is T2, cyno IL-6 (cynomolgus monkey, UniProt P79341 28-212, limits assumed).
T2 sequence (looked up): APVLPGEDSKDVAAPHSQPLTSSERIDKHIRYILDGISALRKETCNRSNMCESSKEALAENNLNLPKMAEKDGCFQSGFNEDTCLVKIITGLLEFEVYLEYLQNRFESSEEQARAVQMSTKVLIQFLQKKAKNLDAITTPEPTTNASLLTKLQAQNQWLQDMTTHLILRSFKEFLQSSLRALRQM
Description: cell-based or functional assay.

The next experiment has as its target human TNF-α (human, UniProt P01375 77-233). Description: cell-based or functional assay.
The next experiment addresses cyno TNF-α (cynomolgus monkey, UniProt P79337 77-233). Put plainly: cell-based or functional assay.
Experiment [2] has as its target T1, human IL-6. Put plainly: cell-based or functional assay. This is another data set of the same source.
For the next experiment, the target named is human TRAIL (human, UniProt P50591 114-281, limits assumed). Description: SPR (ProteOn XPR36), target immobilized.
Another experiment addresses T3, human CD30L (human, UniProt P32971 63-234, limits assumed).
T3 sequence (looked up): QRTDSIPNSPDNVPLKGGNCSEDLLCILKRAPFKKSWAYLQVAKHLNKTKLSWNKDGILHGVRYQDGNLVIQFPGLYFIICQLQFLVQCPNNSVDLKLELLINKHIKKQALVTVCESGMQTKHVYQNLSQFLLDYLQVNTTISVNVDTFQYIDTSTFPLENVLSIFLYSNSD
Put plainly: SPR (ProteOn XPR36), target immobilized.

Another experiment deals with T4, human CD40L (human, UniProt P29965 113-261, limits assumed).
T4 sequence (looked up): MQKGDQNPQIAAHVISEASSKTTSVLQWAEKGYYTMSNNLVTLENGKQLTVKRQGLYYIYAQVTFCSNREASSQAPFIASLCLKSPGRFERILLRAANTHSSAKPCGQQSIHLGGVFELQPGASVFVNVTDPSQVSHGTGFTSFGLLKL
Description: SPR (ProteOn XPR36), target immobilized.

The target of another experiment is T5, human FASL (human, UniProt P48023 134-281, limits assumed).
T5 construct: also called hFASL
T5 sequence (looked up): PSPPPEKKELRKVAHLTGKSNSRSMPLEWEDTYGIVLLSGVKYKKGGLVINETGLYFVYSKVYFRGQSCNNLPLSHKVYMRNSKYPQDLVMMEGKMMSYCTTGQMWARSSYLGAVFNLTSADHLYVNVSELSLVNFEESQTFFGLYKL
Description: SPR (ProteOn XPR36), target immobilized.

For the next experiment, the target named is T6, human TNFβ (human, UniProt P01374 35-205).
T6 construct: the result sentence prints TNF; also called hTNFβ
T6 sequence (looked up): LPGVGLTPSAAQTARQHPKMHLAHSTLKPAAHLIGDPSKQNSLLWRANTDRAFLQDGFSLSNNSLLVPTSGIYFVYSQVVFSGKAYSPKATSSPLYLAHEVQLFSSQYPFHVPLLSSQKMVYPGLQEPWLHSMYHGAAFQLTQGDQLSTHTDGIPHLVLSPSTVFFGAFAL
Put plainly: SPR (ProteOn XPR36), target immobilized.

A further experiment deals with T7, human LIGHT (human, UniProt O43557 74-240, limits assumed).
T7 construct: also called hLIGHT
Description: SPR (ProteOn XPR36), target immobilized.

The target in the next experiment is T8, human IL27 (human, UniProt Q8NEV9 29-243; Q14213 21-229).
T8 sequence (looked up) 1: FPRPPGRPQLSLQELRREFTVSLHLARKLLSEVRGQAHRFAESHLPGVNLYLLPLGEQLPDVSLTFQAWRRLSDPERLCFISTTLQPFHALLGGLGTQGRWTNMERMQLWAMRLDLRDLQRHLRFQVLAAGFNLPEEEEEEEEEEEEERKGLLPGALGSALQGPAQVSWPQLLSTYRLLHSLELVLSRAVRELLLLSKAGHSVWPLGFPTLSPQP
T8 sequence (looked up) 2: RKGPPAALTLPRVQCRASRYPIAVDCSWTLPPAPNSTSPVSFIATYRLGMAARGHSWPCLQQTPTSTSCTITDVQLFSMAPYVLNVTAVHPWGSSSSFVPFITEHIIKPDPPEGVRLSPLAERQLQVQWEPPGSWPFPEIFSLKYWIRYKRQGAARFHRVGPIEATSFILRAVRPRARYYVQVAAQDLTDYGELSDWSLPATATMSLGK
Put plainly: SPR (ProteOn XPR36), target immobilized.

The target in a further experiment is T9, human oncostatin M (human, UniProt P13725 26-221, limits assumed).
T9 construct: also called OSM
T9 sequence (looked up): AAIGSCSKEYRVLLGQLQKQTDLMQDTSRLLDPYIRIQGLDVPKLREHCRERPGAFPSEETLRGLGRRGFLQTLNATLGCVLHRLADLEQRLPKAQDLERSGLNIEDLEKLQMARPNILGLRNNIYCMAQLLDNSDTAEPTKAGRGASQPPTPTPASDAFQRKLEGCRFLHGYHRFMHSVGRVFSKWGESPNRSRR
Put plainly: SPR (ProteOn XPR36), target immobilized.

In a further experiment the target is T10, human IL11 (human, UniProt P20809 22-199).
T10 sequence (looked up): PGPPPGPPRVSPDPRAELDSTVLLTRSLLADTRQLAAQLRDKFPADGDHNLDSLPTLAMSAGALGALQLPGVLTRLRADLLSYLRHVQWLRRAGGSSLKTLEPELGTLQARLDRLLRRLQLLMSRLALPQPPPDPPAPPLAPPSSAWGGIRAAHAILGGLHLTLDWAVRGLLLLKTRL
Description: SPR (ProteOn XPR36), target immobilized.

In experiment [3] the target is T11, human membrane TNFα expressed on HEK293H cells (human, UniProt P01375 1-233).
T11 construct: whole, on cells; also called membrane expressed TNFα
Description: flow cytometry, HEK293H cells expressing human membrane TNFα, without HSA, 24 h. How it is done:
Briefly, cells were fixed with 4% paraformaldehyde and 0.1% glutaraldehyde in PBS (to increase detection of membrane bound TNFα). […] Cells were washed 3 times and subsequently incubated with an anti-VHH mAb (ABH00119) for 30 min at 4° C., washed again, and incubated for 30 min at 4° C. with a goat anti-mouse or anti-human PE labeled antibody. Samples were washed and resuspended in FACS Buffer (D-PBS with 10% FBS and 0.05% sodium azide supplemented with 5 nM TOPRO3). Cell suspensions were then analyzed on an iQuescreener. EC50 values were calculated using GraphPad Prism.

Several values for one entry are separate records, joined by “and”; a condition that tells them apart may be missing. Equal values may be shown once.

Sequence of human TNF-α (P01375 77-233 limits assumed): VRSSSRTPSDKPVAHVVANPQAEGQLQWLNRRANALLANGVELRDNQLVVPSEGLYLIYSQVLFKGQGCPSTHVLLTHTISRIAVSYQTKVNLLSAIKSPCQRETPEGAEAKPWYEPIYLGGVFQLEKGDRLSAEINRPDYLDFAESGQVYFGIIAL
T11 sequence (P01375 whole entry): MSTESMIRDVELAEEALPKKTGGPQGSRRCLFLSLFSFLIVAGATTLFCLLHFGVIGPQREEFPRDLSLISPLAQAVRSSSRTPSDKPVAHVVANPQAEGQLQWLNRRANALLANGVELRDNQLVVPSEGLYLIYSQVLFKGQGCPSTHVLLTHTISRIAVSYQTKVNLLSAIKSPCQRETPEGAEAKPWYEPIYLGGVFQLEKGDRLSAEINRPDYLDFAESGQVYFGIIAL
T7 sequence (O43557 74-240 limits assumed): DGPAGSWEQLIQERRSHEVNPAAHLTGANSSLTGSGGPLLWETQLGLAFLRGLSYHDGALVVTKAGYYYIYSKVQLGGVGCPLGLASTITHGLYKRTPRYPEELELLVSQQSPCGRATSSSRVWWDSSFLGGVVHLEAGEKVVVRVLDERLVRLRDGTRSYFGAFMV
Sequence of human TRAIL (P50591 114-281 limits assumed): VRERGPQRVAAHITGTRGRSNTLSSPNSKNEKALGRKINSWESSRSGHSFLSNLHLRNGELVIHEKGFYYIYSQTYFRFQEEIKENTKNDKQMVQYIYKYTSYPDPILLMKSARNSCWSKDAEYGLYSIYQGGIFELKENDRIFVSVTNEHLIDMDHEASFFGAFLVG
Sequence of cyno TNF-α (P79337 77-233 limits assumed): as the sequence (P01375 77-233 limits assumed) above, with L37V, R44T, T72N, R138L counted along it

B1: F027201062 (bispecific antibody)
chain: DVQLVESGGGVVQPGGSLRLSCAASGRTFSNYAMAWFRQAPGKEREFVAVISYAGGRTYYADSVKGRFTISRDNAKNTVYLQMNSLRPEDTALYYCAAVDSPLIATHPRGYDYWGQGTLVTVSSGGGGSGGGSEVQLVESGGGVVQPGGSLRLSCAASGFTFRSFGMSWVRQAPGKGPEWVSSISGSGSDTLYADSVKGRFTISRDNSKNTLYLQMNSLRPEDTALYYCTIGGSLSRSSQGTLVTVSSGGGGSGGGSEVQLVESGGGVVQPGGSLRLSCAASGFTLAYYAIGWFRQAPGKEREGVSCISGSVGTTYYADSVKGRFTISRDNAKNTVYLQMNSLRPEDTALYYCVRSSWFDCGVQGRDLGNEYDYRGQGTLVTVSSGGGGSGGGSEVQLVESGGGVVQPGGSLRLSCTASGFTFSTADMGWFRQAPGKGREFVARISGIDGTTYYDEPVKGRFTISRDNSKNTVYLQMNSLRPEDTALYYCRSPRYADQWSAYDYWGQGTLVKVSSA
notes: anti-IL-6 (17C04, 6B12), anti-HSA (ALB23002), anti-TNF-α (6C11), C-terminal alanine; produced in Pichia pastoris; also called ISVD construct F027201062; Nanobody F027201062
What is called EC50 is the concentration that produces a half-maximal response. Low readings indicate greater potency, high ones weaker potency. Take B1: the “IC50 of IL-17A/sIL-6R induced VEGF-A release, RA-FLS” value with human IL-6 [1] is 2 nM. In addition, the “average IC50, IL-6 induced TF-1 proliferation” value is 0.034 nM in the experiment with human IL-6 [1] and 0.056 nM in the experiment with cyno IL-6. Further, the “IC50 of SEB-induced CCL4 release, human whole blood” value with human TNF-α is 0.92 nM. Moreover, in the experiment with human TNF-α, the “IC50 of SEB-induced MCP-1 release, human whole blood” value was 3.2 nM. For the same molecule, the “average IC50, NFκB reporter assay” value stood at 0.053 nM with human TNF-α and 0.158 nM in the experiment with cyno TNF-α. Moreover, the “IC50 hIL-6 TF1 proliferation assay” value with human IL-6 [2] is 0.134 nM. For the same molecule, the binding result with human TRAIL, with human CD30L, with human CD40L, with human FASL, with human TNFβ and in the experiment with human LIGHT was “no binding (tested: 300 nM)” each time. Moreover, the binding result with human IL27, with human oncostatin M and in the experiment with human IL11 was “no binding (tested: 300 nM)” each time. Further, the EC50 in experiment [3] is 0.12 nM and 0.18 nM and 0.17 nM.
